Source: paper PMC8154056

Biological target: Gloeobacter violaceus deeply-rooted thioredoxin reductase (GvDTR), renamed ferredoxin flavin-thioredoxin reductase (GvFFTR) (Gloeobacter violaceus) (UniProt Q7NMP6)
Assay: ITC

stoichiometry N: 1
Substance: Gloeobacter violaceus plant-type [2Fe-2S] ferredoxin 1 (GvFdx1) (natural protein)
